Assay results as given in US20250313648A1 (REGENTS OF THE UNIVERSITY OF MINNESOTA, published 2025).

How the values were obtained:
[1] = molecular target: T1, chondroitin sulfate proteoglycan 4 (CSPG4) (human, UniProt Q6UVK1 30-2322); test: western blot on mock and CSPG4-CRISPR cell lysates; immunofluorescence of cells
T1 construct: whole, on cells; Endogenous full-length CSPG4 of human ovarian cancer cell lines, on the cell surface or in cell lysates for western blot; also called CSPG4 core protein
T1 sequence (Q6UVK1 30-2322): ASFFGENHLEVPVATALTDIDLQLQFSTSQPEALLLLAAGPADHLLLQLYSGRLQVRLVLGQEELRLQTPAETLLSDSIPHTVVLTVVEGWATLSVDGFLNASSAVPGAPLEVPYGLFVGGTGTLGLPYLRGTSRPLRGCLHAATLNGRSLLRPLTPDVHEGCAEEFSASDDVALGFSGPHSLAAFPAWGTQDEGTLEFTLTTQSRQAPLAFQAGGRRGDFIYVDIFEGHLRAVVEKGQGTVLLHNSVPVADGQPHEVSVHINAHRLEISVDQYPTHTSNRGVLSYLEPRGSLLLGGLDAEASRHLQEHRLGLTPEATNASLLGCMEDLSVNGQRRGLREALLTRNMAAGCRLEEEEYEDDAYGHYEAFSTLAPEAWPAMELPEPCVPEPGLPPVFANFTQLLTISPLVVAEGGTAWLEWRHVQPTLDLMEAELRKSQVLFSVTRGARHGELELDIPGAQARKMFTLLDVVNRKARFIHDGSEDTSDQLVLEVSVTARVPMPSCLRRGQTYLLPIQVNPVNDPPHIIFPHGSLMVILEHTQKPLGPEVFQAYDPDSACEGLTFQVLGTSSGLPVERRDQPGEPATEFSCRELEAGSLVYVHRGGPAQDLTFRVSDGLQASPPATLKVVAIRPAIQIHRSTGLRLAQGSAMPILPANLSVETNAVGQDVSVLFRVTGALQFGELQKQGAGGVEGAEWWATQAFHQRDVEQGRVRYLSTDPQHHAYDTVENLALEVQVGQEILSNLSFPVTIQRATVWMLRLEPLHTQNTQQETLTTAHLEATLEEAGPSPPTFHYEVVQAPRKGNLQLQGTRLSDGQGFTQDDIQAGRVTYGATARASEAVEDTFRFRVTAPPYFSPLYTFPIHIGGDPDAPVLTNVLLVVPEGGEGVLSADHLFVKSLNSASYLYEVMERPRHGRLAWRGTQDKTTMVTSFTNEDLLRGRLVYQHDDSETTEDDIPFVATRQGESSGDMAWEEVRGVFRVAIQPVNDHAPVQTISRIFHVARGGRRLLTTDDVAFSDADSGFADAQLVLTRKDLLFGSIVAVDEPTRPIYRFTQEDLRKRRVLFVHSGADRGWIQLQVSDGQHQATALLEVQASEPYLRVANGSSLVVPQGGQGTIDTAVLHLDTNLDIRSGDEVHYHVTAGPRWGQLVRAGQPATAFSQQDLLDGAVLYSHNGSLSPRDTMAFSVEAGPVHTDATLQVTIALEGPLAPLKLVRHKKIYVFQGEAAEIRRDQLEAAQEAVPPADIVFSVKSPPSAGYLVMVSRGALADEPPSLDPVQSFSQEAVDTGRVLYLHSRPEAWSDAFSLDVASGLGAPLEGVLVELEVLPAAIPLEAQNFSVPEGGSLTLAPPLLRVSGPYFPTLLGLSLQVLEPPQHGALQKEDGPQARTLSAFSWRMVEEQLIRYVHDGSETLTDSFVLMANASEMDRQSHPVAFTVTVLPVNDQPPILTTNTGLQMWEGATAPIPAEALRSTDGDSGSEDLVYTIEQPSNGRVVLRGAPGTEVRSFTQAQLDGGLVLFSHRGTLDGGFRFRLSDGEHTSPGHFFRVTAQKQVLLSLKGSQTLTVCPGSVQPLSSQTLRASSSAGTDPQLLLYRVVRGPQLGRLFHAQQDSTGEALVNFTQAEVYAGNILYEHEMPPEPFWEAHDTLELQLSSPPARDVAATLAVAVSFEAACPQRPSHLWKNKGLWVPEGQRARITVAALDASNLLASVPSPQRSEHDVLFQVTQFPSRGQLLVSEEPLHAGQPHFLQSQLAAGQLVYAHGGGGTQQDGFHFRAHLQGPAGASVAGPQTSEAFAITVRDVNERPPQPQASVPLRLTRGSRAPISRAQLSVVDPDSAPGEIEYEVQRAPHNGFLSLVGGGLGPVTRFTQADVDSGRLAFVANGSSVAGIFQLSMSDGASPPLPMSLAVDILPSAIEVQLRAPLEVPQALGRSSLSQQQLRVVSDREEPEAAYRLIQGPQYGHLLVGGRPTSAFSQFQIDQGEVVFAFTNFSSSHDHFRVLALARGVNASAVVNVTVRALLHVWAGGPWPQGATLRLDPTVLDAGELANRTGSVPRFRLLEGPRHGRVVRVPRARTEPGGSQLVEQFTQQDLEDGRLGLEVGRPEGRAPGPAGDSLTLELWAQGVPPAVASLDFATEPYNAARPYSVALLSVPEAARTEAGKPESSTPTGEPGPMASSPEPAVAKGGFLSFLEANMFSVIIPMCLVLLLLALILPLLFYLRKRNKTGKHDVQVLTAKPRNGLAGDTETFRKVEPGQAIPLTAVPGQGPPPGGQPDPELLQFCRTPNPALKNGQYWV
Description: FIGS. 1A-1D. Antibody 7H5A2 targets CSPG4. FIG. 1A) Amino acid sequence of recombinant protein target used to generate antibody 7H5A2 (SEQ ID NO:34). Black text denotes CSPG4 region (SEQ ID NO:33), the lighter gray text corresponds to human FC sequence for protein purification. […] Cells are harvested in lysis buffer and 40 μg protein was loaded in each well from the indicated mock and CSPG4-CRISPR cell lines. Alpha-tubulin is included as a loading control. FIG. 1D) Immunofluorescence staining of HEY parent cells with antibody 7H5A2. Red bar=10 μm. Magnification 600×.
Generation of novel CSPG4 antibody: CSPG4-specific mouse monoclonal antibody 7H5A2 was generated by Promab Biotechnologies Inc (Richmond, CA) by injection of a recombinant CSPG4 protein immunogen corresponding to aa 1538-2221 of the CSPG4 core protein extracellular domain, expressed and purified from a eukaryotic expression system (see FIG. 1A). The specificity of the antibody was determined by screening against CSPG4 wild type and knockout cell lysates via western blot and cell staining via immunofluorescence (see FIGS. 1B and 1C). 7H5A2 is isotype IgG1.

[2] = molecular target: T1, chondroitin sulfate proteoglycan 4 …; test: identified by the methods of Example 6 (hybridoma raised against the CSPG4 fragment)

Row | Binder | binding result [1] | binding result [2]
1 | CSPG4-specific mouse monoclonal antibody 7H5A2 (antibody, IgG1, V domains shown, also called anti-CSPG4 antibody 7H5A2) VH: QVQLQQSGAELVRPGSSVKISCKASGFAFSNYWMNWVKQRPGQGLEWIGQIFPGDGDTNYNGKFKGKATLTADKSSSTAYMQLISLTSEDSAVYFCVRESDWGRGTTLTVSS VL: DIQMTQTTSSLSASLGDRVTISCSASQGINNYLNWYQQTPDGTVKLLIFYTSSLQSGVPSRFSGSGSGTDYSLTISNLEPEDIATYYCQQYSKLPFTFGSGTKLEIKR | binds | 
2 | anti-CSPG4 antibody 8G5A6 (antibody, V domains shown) VH: EVQLQQSGPDLVKPGASVKISCKASGYSFTVYYMNWVKQSHGKSLEWIGRIDPNDGGASYNQKFKGKAILTVDKSSGTAYMELRSLTSEDSAVYYCARRDYYGSKDYWGQGTTLTVSS VL: not shown |  | binds
